Test results as given in patent CN116143917A (DONGGUAN PENGZHI BIOTECHNOLOGY CO LTD, dated 2023).

T1: D-二聚体抗原(购自菲鹏)
T1 chain 1: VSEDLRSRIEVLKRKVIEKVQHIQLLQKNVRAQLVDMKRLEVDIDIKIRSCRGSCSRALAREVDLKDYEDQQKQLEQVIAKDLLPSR
T1 chain 2: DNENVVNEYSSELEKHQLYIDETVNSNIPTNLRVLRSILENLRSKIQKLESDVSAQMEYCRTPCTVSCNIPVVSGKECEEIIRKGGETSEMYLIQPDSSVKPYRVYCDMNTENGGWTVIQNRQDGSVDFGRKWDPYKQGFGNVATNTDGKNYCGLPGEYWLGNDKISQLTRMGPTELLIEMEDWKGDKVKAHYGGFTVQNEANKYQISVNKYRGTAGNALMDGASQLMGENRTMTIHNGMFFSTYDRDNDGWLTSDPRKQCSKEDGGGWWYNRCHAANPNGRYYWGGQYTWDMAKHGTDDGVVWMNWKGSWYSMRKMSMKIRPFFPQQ
T1 chain 3: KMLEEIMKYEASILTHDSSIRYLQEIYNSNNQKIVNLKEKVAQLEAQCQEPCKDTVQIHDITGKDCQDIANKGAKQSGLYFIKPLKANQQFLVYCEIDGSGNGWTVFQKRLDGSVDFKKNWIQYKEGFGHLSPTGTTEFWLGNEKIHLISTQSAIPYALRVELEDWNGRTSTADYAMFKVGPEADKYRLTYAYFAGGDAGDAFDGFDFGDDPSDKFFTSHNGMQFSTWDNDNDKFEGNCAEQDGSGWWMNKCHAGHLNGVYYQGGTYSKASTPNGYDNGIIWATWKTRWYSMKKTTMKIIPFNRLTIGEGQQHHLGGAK


Molecular target: T1, D-二聚体抗原(购自菲鹏)
Test: BLI, AMC sensor, antibody immobilised, D-dimer antigen in serial dilution

Kd [nM] | koff [s⁻¹] | kon [M⁻¹ s⁻¹] | Molecule
21.4 | 0.000132 | 6170 | 对照抗体 (antibody)
9.9 | 0.00545 | 550000 | 14D2RMb-1 (antibody, mouse IgG2a, kappa, Recombinant monoclonal antibody made in CHO cells from hybridoma genes; also called 14D2RMb-1抗体) heavy: QVQLQQSGPELVRPGVSVKISCKGSGYRFTDYSIHWLKQSHAKSLEWIGVISTYSGNPDYNQKFKGKATMTVDQSSSTAYMELARLTSDDSAIYYCSRMNDYYGDYFFDHWGQGTTLIVSSAKTTAPSVYPLAPVCGDTTGSSVTLGCLVKGYFPEPVTLTWNSGSLSSGVHTFPAVLQSDLYTLSSSVTVTSSTWPSQSITCNVAHPASSTKVDKKIEPRGPTIKPCPPCKCPAPNLLGGPSVFIFPPKIKDVLMISLSPIVTCVVVDVSEDDPDVQISWFVNNVEVHTAQTQTHREDYNSTLRVVSALPIQHQDWMSGKEFKCKVNNKDLPAPIERTISKPKGSVRAPQVYVLPPPEEEMTKKQVTLTCMVTDFMPEDIYVEWTNNGKTELNYKNTEPVLDSDGSYFMYSKLRVEKKNWVERNSYSCSVVHEGLHNHHTTKSFSRTPGK light: DVVMTQTPLSLFVDLGDPASISCRSSQSLVHTNGNTYLHWYLQKPGQSPRLLIYKVSNRFSGVPDRFSGSGSGTDFTFKISSVEAEDLGLYFCSQSRHVPLTFGAGTKLELKRADAAPTVSIFPPSSEQLTSGGASVVCFLNNFYPKDINVKWKIDGSERQNGVLNSWTDQDSKDSTYSMSSTLTLTKDEYERHNSYTCEATHKTSTSPIVKSFNRNEC
